# Measurements reported in patent publication US10759835B2, “Monomeric streptavidin mutants, methods of using the same and processes of manufacturing proteins” (The Research Foundation for The State University of New York, priority 2016, dated 2020).
# Residue numbers refer to the chain shown, from its start. Names and notes keep the numbering of the source. Values joined by “and” are separate entries in the source; they are usually repeats but may differ in a detail not shown here. Identical values can stand only once.
# B1: mSA-R: monomeric streptavidin mutant SEQ ID NO: 2, S25R (S13R in SEQ ID NO: 1 numbering) (protein)
# chain: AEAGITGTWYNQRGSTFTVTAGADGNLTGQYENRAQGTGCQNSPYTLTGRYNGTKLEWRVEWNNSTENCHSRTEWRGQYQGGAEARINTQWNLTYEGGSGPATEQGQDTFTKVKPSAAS
# modifications: Modified streptavidin
# B2: mSA-RWT: monomeric streptavidin mutant SEQ ID NO: 4, S25R, T48W, E124T (protein)
# chain: B1 chain with T38W, E104T
# modifications: Modified streptavidin
# B3: mSA: engineered monomeric streptavidin, reference sequence SEQ ID NO: 1 (Lim et al. 2013) (protein)
# chain: B1 chain with R13S
# modifications: monomeric streptavidin
# B4: mSA-ERWT: monomeric streptavidin mutant SEQ ID NO: 10, Q24E, S25R, T48W, E124T (protein)
# chain: B1 chain with Q12E, T38W, E104T
# modifications: Modified streptavidin
# B5: mSA-DR: monomeric streptavidin mutant SEQ ID NO: 7, Q24D, S25R (protein)
# chain: B1 chain with Q12D
# modifications: modified streptavidin
# B6: mSA-ER: monomeric streptavidin mutant SEQ ID NO: 6, Q24E, S25R (protein)
# chain: B1 chain with Q12E
# modifications: Modified streptavidin
# B7: mSA-DRF: monomeric streptavidin mutant SEQ ID NO: 9, Q24D, S25R, T48F (protein)
# chain: B1 chain with Q12D, T38F
# modifications: Modified streptavidin
# B8: mSA-ERF: monomeric streptavidin mutant SEQ ID NO: 8, Q24E, S25R, T48F (protein)
# chain: B1 chain with Q12E, T38F
# modifications: Modified streptavidin
# B9: mSA-DRWT: monomeric streptavidin mutant SEQ ID NO: 11, Q24D, S25R, T48W, E124T (protein)
# chain: B1 chain with Q12D, T38W, E104T
# modifications: Modified streptavidin
# B10: mSA-H: monomeric streptavidin mutant SEQ ID NO: 5, S25H (protein)
# chain: B1 chain with R13H
# modifications: Modified streptavidin
# Columns and labels:
# [1] = Fluorescence polarization spectroscopy, biotin dissociation rate (koff); assay type: binding; conditions: for t1/2: dissociation half-life t1/2=0.693/koff, biotin-fluorescein; for t1/2 / Koff(×10^−3 min^−1): 37° C.; for Koff(×10^−3 min^−1): dissociation of biotin-fluorescein, excess free biotin 100 μM
# Method: FIG. 4. In vitro characterization of purified mSA mutants. a) Stability of mSA-RF and mSA-RWT in PBS was measured by circular dichroism spectroscopy with or without biotin. b) Fluorescence polarization spectroscopy was used to measure the dissociation rate of biotin-fluorescein. The dissociation rate, koff, was computed by fitting normalized fluorescence polarization data, or bound fraction f, to an exponentially decaying function, i.e. ƒ=e^−k^off^*t The measurements were taken at 37° C. c) The equilibrium affinity of binding Kd between mSA-RF and biotin-fluorescein was measured by FP. d) mSA-S25H and mSA-RF were analyzed by size exclusion chromatography to estimate their molecular weights in solution. Each mutant eluted with a retention time that was consistent with monomeric streptavidin. The molecular weight standards (arrows) correspond to 66.0, 29.0, 12.4 and 6.5 kDa from left to right.
# The binding of biotinylated fluorescein (bf, AnaSpec) was measured using a microplate reader (SpectraMax® i3 Microplate reader from Molecular Devices) in flat bottom 96 well plates (Sterilin Ltd). To measure Kd, 100 nM bf was first mixed with titrating amounts of mSA in PBS containing 0.1 mg/ml bovine serum albumin (BSA). After overnight incubation at room temperature, the fluorescence polarization values were measured and fit to the quadratic binding equation (Hsu and Park, 2010, J Mol Graph Model, 29, 295-308). To measure the off rate (koff), 10 nM bf was first mixed with 50 nM mSA and incubated for 2 hr to form a biotin-mSA complex. To observe dissociation of bf, excess free biotin was added to a final concentration of 100 μM and recording of fluorescence was started immediately. The intensity of polarized fluorescence was measured at various time points and normalized with respect to the value at t=0 min. The intensities were fit to an exponentially decaying function e^−k^off^*t to compute koff. The dissociation half-life t1/2=0.693/koff.
# We measured the biotin dissociation rate of various mSA mutants by fluorescence polarization spectroscopy. Table 2 presents the biotin dissociation rate (koff) of various mutants measured by fluorescence polarization spectroscopy. The S25R mutation lowered koff by nearly 21 fold compared to the original mSA and 3.3 fold compared to the S25H mutant (Table 2, FIG. 4b).
# [2] = system: HEK293 cells displaying biotinylated AP-CFP; assay: Fluorescent labeling of cell surface biotinylated receptor, confocal microscopy; assay type: cell-based
# Excerpt: FIG. 5. Fluorescent labeling of HEK293 cells displaying biotinylated receptor. a) HEK293 cells displaying biotinylated AP-CFP were labeled with Alexa488-conjugated mSA-RWT and imaged by fluorescence microscopy. Fluorescence was filtered for (i) CFP and (ii) Alexa488 and the same field of vision was imaged multiple times at regular intervals to measure the stability of labeling. iii. DIC. mSA-RWT binds only CFP positive cells, indicating high specificity of interaction. b-c) HEK293 displaying unrelated protein fused to CFP b) or untransfected HEK293 c) were treated with purified BirA and then labeled with fluorescent mSA-RWT as in part (a) (i)-(iii) the same as before. d) The captured fluorescence images of mSA-RWT—Alexa488 labeled cells (in jpg format) were loaded into MatLab and the amount of CFP and Alexa488 fluorescence was quantified by summing over pixel values. The fluorescence intensity was normalized with respect to the value at t=0. e) Cells labeled with mSA-RF—EGFP were similarly imaged and analyzed to determine the time dependent loss of mSA labeling.
# Adherent HEK293 cells were seeded in a 24 well plate (Becton Dickinson) and grown in DMEM supplemented with 10% FBS and antibiotic/antimycotic (Invitrogen). At 50% confluency, the cells were transfected with a plasmid containing pDisplay-AP-CFP-TM. After 2 days the wells were supplemented with 100 nM purified BirA, 5 mM ATP, and 0.3 mM biotin and the biotinylation reaction was carried out overnight. The following morning, the cells were detached from the wells using EDTA Solution (Versene from Life Technologies), washed with PBS containing 0.1% w/v BSA (PBSF), and fixed in 4% paraformaldehyde solution. Prior to microscopy, cells were labeled with 1 μM mSA-RWT—Alexa488 or 1 μM mSA-RF—EGFP in PBSF for 30 minutes. Excess protein was washed away and cells were switched to PBSF with 0.9 mM biotin. Each sample was mounted on slides and imaged using confocal microscopy. The same field of view was imaged every 10 min for 60 min to quantify fluorescence loss as a function of time. The captured images were analyzed with microscope software (ZEN from Zeiss, and MatLab® from MathWorks).
# We tested the use of mSA-RWT or mSA-RF in cell imaging, in which biotinylated proteins on the cell surface were labeled with Alexa488 conjugated mSA-RWT or mSA-RF fused to EGFP, and imaged by fluorescence confocal microscopy. Cell imaging is an important test of whether engineered mutants can specifically interact with biotinylated ligands in a heterogeneous environment, in which other potentially competing interactions can interfere with desired detection. […]
# To evaluate the stability of labeling, we imaged the labeled cells repeatedly over 1 hr and quantified the fluorescence intensity of Alexa488 or GFP at regular intervals. […]
# [3] = currently available mSA, Lim et al.; cited from earlier work
Molecule,t1/2 [1],Koff(×10^−3 min^−1) [1],also measured
B1,4.62 ± 0.2 h,2.51 ± 0.11 ×10^−3 min^−1,fold lowering of koff compared to the S25H mutant [1]: 3.3 fold; fold lowering of koff compared to the original mSA [1]: ~21 fold and 25 fold; t1/2 ([1]; listed as S25R): 4.62 h
B2,5.48 ± 0.35 h,2.11 ± 0.13 ×10^−3 min^−1,"off rate / dissociation half-life compared with another mutant ([1]; result in words): longer than mSA-S25R; Alexa488/GFP fluorescence of labeled cells over time ([2]; after 1 hr, 900 μM biotin in the labeling solution): remained high; labeling of cells displaying biotinylated AP-CFP ([2]; fixed HEK293 cells, 1 μM for 30 minutes): Only CFP positive cells were labeled selectively"
B3,0.183 h,63 ×10^−3 min^−1,biotin dissociation koff [3]: 0.00105 s⁻¹; dissociation t1/2 [3]: 0.183 h
B4,1.19 ± 0.0283 h,9.73 ± 0.24 ×10^−3 min^−1,–
B5,0.568 ± 0.02 h,20.3 ± 0.69 ×10^−3 min^−1,–
B6,1.14 ± 0.102 h,10.2 ± 0.91 ×10^−3 min^−1,–
B7,0.778 ± 0.0217 h,14.9 ± 0.41 ×10^−3 min^−1,–
B8,1.26 ± 0.03 h,9.15 ± 0.21 ×10^−3 min^−1,–
B9,0.717 ± 0.0233 h,16.1 ± 0.52 ×10^−3 min^−1,–
B10,1.41 ± 0.0517 h,8.19 ± 0.31 ×10^−3 min^−1,–
